Assay: yeast display, Sf9 membrane polyspecificity reagent, FACS + sequencing; frameworks hold sequencing errors
Outline: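 Nanobodies came from a synthetic yeast display library in Saccharomyces cerevisiae BJ5465, induced with galactose for 36–48 hours and stained for 1 hour at 4 °C with 10% biotinylated, detergent-solubilized Sf9 membrane reagent. Cells were enriched on streptavidin microbeads and then FACS-sorted, with low and high (top ~1%) gates set on anti-HA fluorescence for expression and streptavidin fluorescence for reagent binding. Each polyreactivity label reflects the gate a clone came from. Genes were amplified by colony PCR, sequenced by MiSeq 2 × 250 and filtered by CDR length.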

Sequence | polyreactivity (PSR sort gate)
QVQLVESGGGLVQAGGSLRLSCAASGIIFNKYAMGWYRQAPGKEREFVAAITYRGGSTYYADSVKGRFTISRDNAKNTVYLQMNSLKPEDTAVYYCAARRITTYYYWGQGTQVTVSS | high polyreactivity
QVQLVESGGGLVKAGGSLRLSCAASGRTFRYNAMGWYRQPPGKERELVAVINSNGGSTYYADSVKGRFTISRDNAKNTVYLQMNSLKPEDTAVYYCAADYIRIQEYDYWGQGTQVTVSS | low polyreactivity
QVQLVESGGGLVQAGGSLRLSCAASGYTFSYNAMGWYRQAPGKERELVAAISRSGGSTYYADSVKGRFTISRDNAKNTVYLQMNSLKPEDTAVYYCAAKRVSVPYGYWGQGTQVTVSS | high polyreactivity
QVQLVESGGGLVQAGGSLRLSCAASGFIIAYYAMGWYRQAPGKEREWVAAITSDGGSTYYADSVKGRFTISRDNAKNTVYLQMNSLKPEDTAVYYCAAQGYPYGRLWGGYYRYDYWGQGTQVTVSS | high polyreactivity
QVQLVESGGGLVQEVGSLRLSCAASGSTIYWYAMGWSRQAPGKEMEIVAAISLGSGSTYYADSVKGRFTISRDNAKNTVYLQMNSLKPEDTAVYYCATRGSAWGRSYYYWGQGTQVTVSS | high polyreactivity
QVQLVESGGGLVQAGGRLRLSCPASGLIFSYYAMGWYRQEPGKERELVAAISRGGSTNYADSVKGRFTISRDNAKNTVYLQMNSLKPEDTAVYYCAARFVLRRDYGYWGQGTQVTVSS | high polyreactivity
QVQLVESGGGLVQAGGSLRLSCAASGFIFRYNPMGRYRHAPGKEREFVAAIDSGGSTYYADSVKGRFTISRDNAKNTVYLQMNSLKPEDTAVYYCNAVHEASYAGVDYWGQGTQVTVSS | low polyreactivity
QVQHVESGGGLVQAGGSLRLICAASGSTFYYNAMGWYRQAPGKERELVAAISFSGGSTYYADSVKGRFTISRDNAKNTVYLQMNSLKPDDTAVYYCNRVYYAFYVYYYSTYDYWGQGTQVTLSS | low polyreactivity
QVQLVESGGGLVQAGGSLRLSCAASGSIFRINAMGWYRPARGKERELVAATTKYADSVKGRFTISRDNAKNTVYLQMHSLKPEDTAVYYCAAAPIGGSSHPYDYWGQGTQVTVTS | low polyreactivity
QVQLVESGGGLVQAGGSLRLSCAASGRTFSAYTMGWYRQAPGKERELVAAISRRGGSTYYADSVKGRFTISRDNAKNTVYLQMNSLKPEDTAVYYCATKSQYDYDYWGHGTQVTVSS | high polyreactivity
QVQLVESGGGLVQAGGSLRLSCAASGFILLDNAMGWYRQAPGKEREFVASINISGDRTFYADSVKGRFTISRDNAKNTDYLQMNSLKPEDTAVYYCNALPSEPMVYWGQGTQVTVSS | low polyreactivity
QVQLVESGGGLVQAGGSLRLSCAASGFTFVPYTMGWYRQAPGKERELVPRINTSGGGTYYADSVKGRFTISRDNAKNTVYLQMNSLKPEDTAVYYCAARRNYRAQPKTRWTGYYYWGQGTQVTVSS | high polyreactivity
QVQLVESGGGLVQAGGSLRLSCAASGRTFYHYTMGWYTQAPGKERELVAAISSGGSTNYADSVKGRFTISRDNAKNTVYLQMNSLKPEDTAVYYCAARYRGWSGGYDYWGQGTQETVSS | high polyreactivity
QVQLVESGVGLVQAGGSLRLSCAASGRIFSKYAMGWYRQAPGKERELVAAISANGGGSTYYADSVKGRFTISRDNAKNTFYLQMNSLKPEDSAVYYCAALAYSTTRGRLDYWGQGTQVTVSS | high polyreactivity
QVQLVESGGGLVQAGGSLRLSCAASGIIFAYYAMGWYRQAPGKERELVASITNTGSTYYADSVKGRFTISRDNAKNTVYLQMNSLKPEDTAVYYCNAVLSSNTKWRYPGDYWGQGTQVTVSS | low polyreactivity
QVQLVESGGGLVQAGGSLRLSCAASGRIFVVNAMGWYRQAPGKERELVAAISSSSDSTYYADSVKGRFTISRDNAKNTVYLQMNSLKPEDTAVFYCAADYHYDGYWIYDYWGQGTQVTVSS | high polyreactivity

Sequence | polyreactivity (PSR sort gate)
QVQLVESGGGLVQAGGSLRLSCAASGSTFPAYAMGWYRQAPGKERELVAAINTSGGNTYYADSVKGRFTISRDNAKNTVYLQMNSLKPEDTAVYYCAADYKARYSEKFDYWGQGTQVTVSS | low polyreactivity
QVQLVESGGGLVQAGGSLRLSCAASGSTFFVNAMGWYRQAPGKERELVAAISTSGGRTYYADSVKGRFTISRDNAKNTVYLQMNSLKPEDTAVYYCAAFLRSPKGYYYWGQGTQVTVSS | high polyreactivity
QVQLVESGGGLVQAGGSLRLSCAASGSTFGVYTMGWYRQAPGKERELVAAITKSGGSTYYADSVKGRFTISRDNAKNTVYLQMNSLKPEDTAVYYCNTDYGRYLYYRYGYWGQGTQVTVSS | low polyreactivity
QVQLVESGVGLVQAGGSLRLICGASGFTFDYNSMVWYRQAPGKERELVAAISASGGSTYYADSVKGRFTISRDNAKNTVYLQMKSLKPEDTAVYYCNAGRVTRRDTFDYWGQGTQVTVSS | high polyreactivity
QVQIVESGGGLEQAGGSLRLSCAASGRIFNRYAMGWYRQAPGKDWELVARNSWSGARTYYADSVKGRFTISRDNAKNTVYLQMNRLKPEDTAVSYCAAAVTYPAGGRTSLYEYWGQRTQVTVSS | high polyreactivity
QVQLVESGGGLVQAGGSLRLSCAASGSIFLRYAMGWSRQARGKERELVAAITSSGRTNYADPVKGRFTISRDNAKNTVYLQMNSLKPEDTAVYYCAAVSYRQGVYRRNRYYYWGQGTQVTVSS | high polyreactivity
QVQLVESGGGLVQAGGSLRLSCAASGIIFTRNAMGWYRQATGKERELVAAITYGGSTYYADSVKGRFTISRDNAKNTVYLQMNSLKPEDTAVYYCAVDAYRYRVHSYGKKYGYNYWGQGTQVTVSS | high polyreactivity
QVQLVESGGGLVQAGGSLRLSCAASGRTFYRYAMGWYRQAPGKERELVAAITWSGGSTYYADSVKGRFTTSRDNAKNTVYFQMNSLKPEDTAVYYCARRLYPYRPTAYDYWGQGTQVTVSS | low polyreactivity
QVQLVESGGGLVQAGGSLRLSCAASGRIFGLNAMGWYRQAPGKERELVAAITGSVGSTYYADSVKGRFTISRDNAKNTVYLQMNSLKPEDTAVYYCYAEYDSRRSSYYRHFNYWGQGTQVTVSS | low polyreactivity
QVQLVESGGGLVQAGGSLLLSCAASGSTFRYYAMGWYRPAPGKERELVAATTSGGSTYYADSVKGRFTISRDNAKNTVYLQMNSLKPEDTAVYYCAKSISRYFFYRPSAAAYGYDYWGQGTQVTVSS | high polyreactivity
QVQLVESGGGLVQAGGSLRLSCAASGRTFKDYAMGWYRPAPGKERELFAAISRGGSTNYADSVKGRFTISRDNAKNTVYLQVNSLKPEDTAVYYCARRYIVQSGDDYWGQGTQVTVSS | low polyreactivity
QVQLVESGGGLVQAGGSLRLSCAASGLIFRSYAMGWYRQAPGKERELVARISIRGGSTYYADSVKGRFTISRDNAKYTVYLQMNSLKPEDTAVYYCGAVGYFGGFRYDYWGQGTQVTVSS | high polyreactivity
QVQLVESGGGLVQAGGSLRLSCAASGTFWGYAMGWYRQAPGKERELVAAISASGASTSYADSVKGRFTISRDNAKNTVYLQMNSLKPEDTAVYYCDARRNTAYGYWGQGTQVTVSS | high polyreactivity
QVQLVESGGGLVQAGGSLRLSCAASGFIFTDYAMAWYRQAPGKERELVAAISYGGRTYYADSVKGRFTISRDNAKNTVYLQMNSLKPEDTAVYYCAAEKWDRYSSWSDYWGQGTQVTVSS | high polyreactivity
QVQLVESGGGLVQAGGSLSLSCAASGLTFKWNAMGWYRQAPGKEREFVAANTKRAGSTYYADSVKGRFTISRDNAKNTVYIQMNSLKPEDTAVYYCAADDGYFYARYDYWGQGTQVTVSS | low polyreactivity

— the nanobody polyreactivity screen of Harvey et al. (2022)
